Results as given in patent publication US6964763.
pKd: −log10 of the molar value.

How the values were obtained:
[1] = target: Recombinant baculovirus-expressed HIV-1 gp120 derived from the MN isolate (HIV-1 isolate MN) (UniProt P05877); assay: competition: 125I-CD4 on immobilized gp120, 10-fold molar excess of peptide; isolate (MN or LAI) not stated
[2] = target: Recombinant baculovirus-expressed HIV-1 gp120 derived from the LAV isolate (HIV-1 isolate LAV (LAI)) (UniProt P03377); assay: as above
[3] = target: CHO cell-expressed soluble recombinant CD4 (UniProt P01730); assay: competition: 125I-CD4 on immobilized gp120 (MN and LAI), 10-fold molar excess of fusion protein
[4] = target: CSVTCG peptide derived from TSP1 properdin-like Type 1 repeat; assay: solid phase binding, 125I-gp120 on immobilized peptide, saturation isotherms

| Substance | % inhibition [1] [%] | % inhibition [3] [%] | also measured |
| --- | --- | --- | --- |
| CSVTCG peptide derived from TSP1 properdin-like Type 1 repeat | 53 | – | – |
| GRGDS peptide derived from TSP1 calcium binding Type 3 repeat | 4 | – | % inhibition [2]: 4% |
| GST/CD36 fusion protein CFP67-157 (from UniProt P16671 67-157) | – | 89 | – |
| GST/LIMPII fusion protein LFP75-155 (from UniProt Q14108 75-155) | – | 89 | – |
| GST/LIMPII fusion protein LFP156-243 (from UniProt Q14108 156-243) | – | 32 | – |
| Recombinant baculovirus-expressed HIV-1 gp120 derived from the LAV isolate (from UniProt P03377 33-516) | – | – | pKd [4]: 6.52 |
